Test results from patent US20240254222A1 (Bayer, published 2024).

T1: Rat Semaphorin3A-Sema Domain, TPP-19120 (rat, UniProt Q63548 21-569)
T1 construct: produced inhouse
T1 sequence: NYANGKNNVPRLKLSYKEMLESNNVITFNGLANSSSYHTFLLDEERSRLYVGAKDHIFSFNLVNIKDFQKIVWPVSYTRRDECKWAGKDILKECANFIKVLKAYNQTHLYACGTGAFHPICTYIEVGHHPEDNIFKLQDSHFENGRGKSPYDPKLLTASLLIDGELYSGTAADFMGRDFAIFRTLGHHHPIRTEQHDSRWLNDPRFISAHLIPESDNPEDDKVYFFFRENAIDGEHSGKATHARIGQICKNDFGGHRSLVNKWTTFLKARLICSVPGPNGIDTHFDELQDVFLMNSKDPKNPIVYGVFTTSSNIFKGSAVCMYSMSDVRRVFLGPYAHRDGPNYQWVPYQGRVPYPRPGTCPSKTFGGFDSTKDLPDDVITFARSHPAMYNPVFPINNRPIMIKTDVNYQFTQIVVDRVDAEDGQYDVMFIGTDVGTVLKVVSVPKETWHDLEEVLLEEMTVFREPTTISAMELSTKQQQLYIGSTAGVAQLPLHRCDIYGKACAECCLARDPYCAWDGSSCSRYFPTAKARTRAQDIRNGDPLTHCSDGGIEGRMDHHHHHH

T2: Human Semaphorin3A-Sema Domain, TPP-19068 (human, UniProt Q14563 21-569)
T2 construct: produced inhouse in HEK293-6E; also called human monovalent Sema3A domain
T2 sequence: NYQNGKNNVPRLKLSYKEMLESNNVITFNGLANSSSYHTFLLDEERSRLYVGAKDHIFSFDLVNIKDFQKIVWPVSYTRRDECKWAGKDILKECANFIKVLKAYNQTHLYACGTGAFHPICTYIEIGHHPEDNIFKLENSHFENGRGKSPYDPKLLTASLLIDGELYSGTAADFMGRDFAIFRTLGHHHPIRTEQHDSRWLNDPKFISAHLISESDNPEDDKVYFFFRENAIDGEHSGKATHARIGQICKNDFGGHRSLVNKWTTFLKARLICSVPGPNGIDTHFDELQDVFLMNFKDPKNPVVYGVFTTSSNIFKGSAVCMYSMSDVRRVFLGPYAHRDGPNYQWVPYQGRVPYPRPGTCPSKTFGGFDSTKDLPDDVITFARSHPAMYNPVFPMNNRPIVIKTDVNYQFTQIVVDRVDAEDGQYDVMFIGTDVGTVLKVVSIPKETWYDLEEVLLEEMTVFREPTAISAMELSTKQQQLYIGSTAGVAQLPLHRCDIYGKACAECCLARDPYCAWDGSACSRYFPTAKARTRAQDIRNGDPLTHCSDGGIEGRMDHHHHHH


What was measured:
[1] = molecular target: T1, Rat Semaphorin3A-Sema Domain, TPP-19120; assay: SPR, captured antibody, Sema3A domain analyte
Method in brief: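 Antibodies captured on anti-human Fc surface, monovalent Sema3A domain (human, mouse, cyno, rat, dog, pig) injected at 0.024-3.125 nM, multi-cycle kinetics, 25° C, HBS P+ with 300 mM NaCl, CaCl₂, MgCl₂, BSA. Double-referenced sensorgrams fitted 1:1 Langmuir; binding activity = experimental RMax / theoretical RMax.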

[2] = molecular target: T3, Human Semaphorin3A-Fc (R&D Systems), TPP-13211 (human); assay: ELISA, signal on TPP-13211 divided by signal on TPP-19068
T3 construct: R&D Systems 1250-S3; also called recombinant human Sema3A-Fc chimera
T3 sequence (chain, as listed by the source limits assumed): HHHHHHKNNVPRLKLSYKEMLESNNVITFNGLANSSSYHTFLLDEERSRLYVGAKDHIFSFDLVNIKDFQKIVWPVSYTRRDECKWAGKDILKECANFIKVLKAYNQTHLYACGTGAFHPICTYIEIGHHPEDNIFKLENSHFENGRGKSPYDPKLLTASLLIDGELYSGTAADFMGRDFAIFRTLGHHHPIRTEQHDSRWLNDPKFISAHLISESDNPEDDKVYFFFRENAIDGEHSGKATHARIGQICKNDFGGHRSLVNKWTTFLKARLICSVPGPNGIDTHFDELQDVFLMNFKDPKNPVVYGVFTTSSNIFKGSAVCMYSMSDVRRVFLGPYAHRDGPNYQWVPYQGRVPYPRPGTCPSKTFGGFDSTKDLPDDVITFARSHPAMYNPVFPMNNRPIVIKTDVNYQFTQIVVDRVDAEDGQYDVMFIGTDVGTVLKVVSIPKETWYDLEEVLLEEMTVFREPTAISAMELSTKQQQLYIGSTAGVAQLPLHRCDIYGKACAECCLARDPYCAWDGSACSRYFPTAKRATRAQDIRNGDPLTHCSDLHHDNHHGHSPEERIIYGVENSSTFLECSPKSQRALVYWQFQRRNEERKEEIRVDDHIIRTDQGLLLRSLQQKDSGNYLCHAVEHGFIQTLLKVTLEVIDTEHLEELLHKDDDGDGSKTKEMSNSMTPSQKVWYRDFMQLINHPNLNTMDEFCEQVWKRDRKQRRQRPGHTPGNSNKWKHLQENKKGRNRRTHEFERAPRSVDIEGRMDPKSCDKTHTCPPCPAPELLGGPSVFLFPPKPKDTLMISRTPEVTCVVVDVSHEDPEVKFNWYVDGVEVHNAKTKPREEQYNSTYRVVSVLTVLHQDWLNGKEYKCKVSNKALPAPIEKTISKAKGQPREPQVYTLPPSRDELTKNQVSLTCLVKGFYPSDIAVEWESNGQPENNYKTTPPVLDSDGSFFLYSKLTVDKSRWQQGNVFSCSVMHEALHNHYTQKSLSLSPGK
Text: In the in vivo situation Sema3A exists in both forms side by side.

[3] = molecular target: T2, Human Semaphorin3A-Sema Domain, …; assay: SPR, 100 nM TPP-19068, binding experiment
Experimental: To assess the binding kinetics and affinity of anti-Sema3A antibodies as well as their species cross-reactivity profile, binding assays were conducted using surface plasmon resonance (SPR). Binding assays were performed on a Biacore T200 instrument or on a Biacore 8K+ instrument (Cytiva) at 25° C. using assay buffer HBS P+, 300 mM NaCl, 0.75 mM CaCl₂, 2.5 mM MgCl₂, 1 mg/ml BSA, 0.05% NaN₃. Antibodies were captured either via anti-human Fc IgGs (“Human antibody capture kit”, Order No. BR100839, Cytiva) or in case of Fc-tagged analytes by anti-human Fab IgGs (“Human Fab capture kit”, Order No. 28958325, Cytiva) covalently amine coupled to a Series S CM5 sensor chip (Cytiva). The amine coupling was carried out according to the manufacturer's instructions using 1-ethyl-3-(3-dimethylaminopropyl) carbodiimide hydrochloride (EDC), N-hydroxysuccinimide (NHS) and ethanolamine HCl, pH 8.5 (“Amine Coupling Kit” BR-1000-50, Cytiva.). For phage display hits Fc-tagged human and mouse Sema3A was used as analytes in a concentration range from 1.56-200 nM. Human, mouse, cynomolgus, rat, dog and pig monovalent Sema3A domain were used as analytes in a concentration series from […] in multi cycle kinetics mode or in 100 nM for binding analysis only. The sensor surface was regenerated with glycine pH 2.0 after each antigen injection. Obtained sensorgrams were double referenced (subtraction of reference flow cell signal and buffer injection) and were fitted to a 1:1 Langmuir binding model to derive kinetic data using the Biacore T200 Evaluation software.

Binding Activity [%] [1] [%] | Ratio ELISA binding TPP-13211/TPP-19068 [2] | Kd [3] [nM] | Binder
108 | 0.66 | 0.13 | TPP-23298 (antibody, human IgG4 S228P, lambda, V domains shown) VH: EVQLLESGGGLVQPGGSLRLSCAASGFTFYSYAMSWVRQAPGKGLEWVSAIGTGGDTYYADSVKGRFTISRDNSKNTLYLQMNSLRAEDTAVYYCARRDDYTSRDAFDYWGQGTLVTVSS VL: not shown
113 |  |  | TPP-15370 (antibody, human IgG1, lambda, V domains shown, human IgG1; also called IgG1, hit from panning; parental mAb) VH: EVQLLESGGGLVQPGGSLRLSCAASGFTFSSYGMHWVRQAPGKGLEWVSAIGTGGDTYYADSVMGRFTISRDNSKNTLYLQMNSLRAEDTAVYYCARRDDYTSRDAFDVWGQGTLVTVSS VL: not shown
31 |  |  | TPP-11489 (antibody, human IgG1, lambda, human IgG1; also called Chiome; Chiome Prior Art (hIgG1)) heavy: not shown light: SYELTQPPSVSVSPGQTARITCSGGGSYTGSYYYGWYQQKPGQAPVTVIYYNNKRPSDIPERFSGSLSGTTNTLTISGVQAEDEADYYCGSADNSGDAFGTGTKVTVLGQPKAAPSVTLFPPSSEELQANKATLVCLISDFYPGAVTVAWKADSSPVKAGVETTTPSKQSNNKYAASSYLSLTPEQWKSHRSYSCQVTHEGSTVEKTVAPTECS
56 |  | 6.2 | TPP-17755 (antibody, human IgG1, lambda, V domains shown, also called Samsung; Samsung Prior Art F11) VH: EVQLLESGGGLVQTGGSLRLSCAASGFTFSDYAMSWVRQAPGKGLEWVSWIYYDSGSKYYADSVKGRFTISRDNSKNTLYLQMNSLRAEDTAVYYCAKLNGDFDYWGQGTLVTVSS VL: QSVLTQPPSASGTPGQRVTISCSGSSSNIGNNDVSWYQQLPGTAPKLLIYADSHRPSGVPDRFSGSKSGTSASLAISGLRSEDEADYYCGAWDSSLSGYVFGGGTKLTVLG
109 | 0.19 | 0.098 | TPP-30788 (antibody, human IgG1, kappa, V domains shown, prior art, WO 2020/225400; also called BI clone I; Böhringer (BI) Clone I) VH: EVQLVESGGGLVQPGGSLRLSCAASGFTFSSYYMSWVRQAPGKGLEWVSTIIKSGGYAYYPDSVKDRFTISRDNSKNTLYLQMSSLRAEDTAVYYCVRGGQGAMDYWGQGTTVTVSS VL: EIVLTQSPATLSLSPGERATLSCRASQSIGDYLHWYQQKPGQAPRLLIKYASQSISGIPARFSGSGSGTDFTLTITSLEPEDFAVYYCQQGYSFPYTFGGGTKLEIKR
104 | 0.2 |  | TPP-30789 (antibody, human IgG1, kappa, V domains shown, prior art, WO 2020/225400; also called BI clone II; Böhringer (BI) Clone II) VH: EVQLVESGGGLVQPGGSLRLSCAASGFPFSSYYMSWVRQAPGKGLEWVSTIIKSGGYAYYPDSVKDRFTISRDNSKNTLYLQMSSLRAEDTAVYYCVRGGQGAMDYWGQGTTVTVSS VL: EIVLTQSPATLSLSPGERATLSCRASQSIGDYLHWYQQKPGQAPRLLIKYASQSISGIPARFSGSGSGTDFTLTITSLEPEDFAVYYCQQGYSFPYTFGGGTKLEIKR
109 | 0.21 |  | TPP-30791 (antibody, human IgG1, kappa, V domains shown, prior art, WO 2020/225400; also called BI clone IV; Böhringer (BI) Clone IV) VH: EVQLVESGGGLLQLGGSLRLSCAASGFTFSSYYMSWVRQAPGKGLEWVSTIIKSGGYAYYPDSVKDRFTISRDNSKNTLNLQMNSLRAEDTAVYYCVKGGQGAMDYWGQGTTVTVSS VL: EIVLTQSPATLSLSPGERATLSCRASQSIGDYLHWYQQKPGQAPRLLIKYASQSISGIPARFSGSGSGTDFTLTISSLEPEDFAVYYCQQGYSFPYTFGGGTKLEIKR
94 | 0.19 |  | TPP-30790 (antibody, human IgG1, kappa, V domains shown, prior art, WO 2020/225400; also called BI clone III; Böhringer (BI) Clone III) VH: EVQLVESGGGLVQLGGSLRLSCAASGFTFSSYYMSWVRQAPGKGLEWVSTIIKSGGYAYYPDSVKDRFTISRDNSKNTLYLQMNSLRAEDTAVYYCVKGGQGAMDYWGQGTTVTVSS VL: EIVLTQSPATLSLSPGERATLSCRASQSIGDYLHWYQQKPGQAPRLLIYYASQSISGIPARFSGSGSGTDFTLTISSLEPEDFAVYYCQQGYSFPYTFGGGTKLEIKR
94 |  |  | TPP-15374 (antibody, human IgG1, lambda, V domains shown, human IgG1; also called IgG1, hit from panning; parental mAb) VH: EVQLLESGGGLVQPGGSLRLSCAASGFTFSSYEMNWVRQAPGKGLEWVSGISWNSGSIGYADSVKGRFTISRDNSKNTLYLQMNSLRAEDTAVYYCARSGYSSSWFDPDFDYWGQGTLVTVSS VL: QSVLTQPPSASGTPGQRVTISCTGSSSNIGAGYDVHWYQQLPGTAPKLLIYGNSNRPSGVPDRFSGSKSGTSASLAISGLRSEDEADYYCSSYAGSNPYVVFGGGTKLTVLG
